The record followed here is article doi:10.1101/2024.07.21.604514.

For assay [1], the target named is human GLP-1R-LgBiT-2MBP (glucagon-like peptide-1 receptor, construct for structure determination) (human) (UniProt P43220).
The target is the same in assay [2]. The source holds these as a separate data set.

UniProt P43220, sequence (P43220 24-463): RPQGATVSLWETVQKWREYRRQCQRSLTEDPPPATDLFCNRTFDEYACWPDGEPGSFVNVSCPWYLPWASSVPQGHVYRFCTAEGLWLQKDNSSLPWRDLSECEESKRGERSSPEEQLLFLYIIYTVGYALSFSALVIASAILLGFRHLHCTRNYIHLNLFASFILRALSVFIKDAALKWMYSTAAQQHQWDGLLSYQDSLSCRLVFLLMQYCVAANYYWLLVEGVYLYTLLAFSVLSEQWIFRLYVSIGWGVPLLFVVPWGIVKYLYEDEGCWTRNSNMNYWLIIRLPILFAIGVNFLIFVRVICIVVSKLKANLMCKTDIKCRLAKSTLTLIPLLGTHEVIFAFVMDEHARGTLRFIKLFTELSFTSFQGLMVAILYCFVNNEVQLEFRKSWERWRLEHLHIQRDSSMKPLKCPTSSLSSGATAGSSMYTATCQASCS

GLP-1(9-36)NH2 (peptide) displayed an EC50 of cAMP accumulation, WT GLP-1R, with 50 nM LSN3318839 (full agonist) in assay [1] of 23 nM. The EC50 of cAMP accumulation, WT GLP-1R, with 5 μM LSN3318839 in assay [2] came to 0.41 nM.
